In patent US20200347130A1 (JIANGSU HENGRUI MEDICINE, published 2020):

What was measured:
[1] = target: T1, CD96 extracellular region with His tag (CD96-His) (human, UniProt P40200 22-519); assay: blocking cell ELISA: antibody premixed with Bio-CD96-His (0.5 ug/mL), binding to fixed CD155-CHO cells
T1 construct: also called CD96-ECD-His; Bio-CD96-His (biotin-labelled form)
T1 sequence: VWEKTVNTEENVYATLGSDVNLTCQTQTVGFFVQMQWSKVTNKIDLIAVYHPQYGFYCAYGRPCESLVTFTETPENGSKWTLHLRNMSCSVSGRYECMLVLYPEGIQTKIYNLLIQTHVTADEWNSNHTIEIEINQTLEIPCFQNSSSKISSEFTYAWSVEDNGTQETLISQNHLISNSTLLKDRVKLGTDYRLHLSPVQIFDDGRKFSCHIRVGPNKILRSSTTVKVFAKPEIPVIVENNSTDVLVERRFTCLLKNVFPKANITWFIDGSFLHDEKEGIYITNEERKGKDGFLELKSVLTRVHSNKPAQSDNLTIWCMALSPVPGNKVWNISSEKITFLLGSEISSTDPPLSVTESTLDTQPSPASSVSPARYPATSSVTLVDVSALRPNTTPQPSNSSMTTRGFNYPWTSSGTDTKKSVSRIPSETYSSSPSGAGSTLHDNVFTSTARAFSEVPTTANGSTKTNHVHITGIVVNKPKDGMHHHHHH
Description: CD155-CHO cells (constructed by Shanghai Hengrui) were seeded in 96-well culture plates at a density of 9×10⁴/100 μL/well and cultured overnight. After aspirating the supernatant, the plate was washed once with PBS, 100 μl/well of immunostaining fixation solution (Biyuntian, Cat No. P0098) was added and fixed for one hour at room temperature, and the plate was washed three times with PBS. After discarding the liquid, 250 μl/well of 5% skim milk (BD, Cat No. 232100) blocking solution diluted with PBS was added, and the plate was blocked in an incubator at 37° C. for 2.5 hours. After blocking, the blocking solution was discarded, subsequently, the plate was washed 4 times with PBST buffer (pH 7.4 PBS containing 0.05% tween-20). 50 μl/well of antigen-antibody pre-incubation solution (gradient concentrations of the hybridoma antibody to be tested and CD96-Fc at a final concentration of 0.5 μg/mL were premixed at 37° C. for 30 minutes, or gradient concentrations of humanized antibody samples and Bio-CD96-His at a final concentration of 0.5 μg/mL were premixed at 37° C. for 30 minutes) (Biotin-labeled kit, Dongren Chemical, Cat No. LK03) was added, and the plate was incubated in an incubator at 37° C. for 2 hours. After incubation, the reaction solution in the microtiter plate was discarded, the plate was washed 4 times with PBST, and 50 μl/well of HRP-labeled goat anti-human secondary antibody (Jackson Immuno Research, Cat No. 109-035-003) diluted with sample dilution or HRP-labeled streptavidin diluted with sample dilution (Sigma, Cat No. 52438) was added, followed by incubating at 37° C. for 1 hour. After washing the plate 4 times with PBST, 50 μl/well of TMB chromogenic substrate (KPL, Cat No. 52-00-03) was added, the plate was incubated at room temperature for 10-20 minutes, followed by adding 50 μl/well of 1M H₂SO₄ to stop the reaction. The absorption value was read at 450 nm with a NOVOStar microplate reader, and the EC50 value of the effect of CD96 antibody on blocking the binding between the antigens and CD155-CHO cells was calculated (see FIG. 2 and Table 16).

[2] = target: T2, Monkey CD96-3xFlag (cyno-CD96-3xFLAG) (cynomolgus monkey); assay: ELISA, cyno-CD96-3xFLAG coated
T2 construct: Signal peptide marked only by lost underlining; also called cynomolgus CD96
T2 chain: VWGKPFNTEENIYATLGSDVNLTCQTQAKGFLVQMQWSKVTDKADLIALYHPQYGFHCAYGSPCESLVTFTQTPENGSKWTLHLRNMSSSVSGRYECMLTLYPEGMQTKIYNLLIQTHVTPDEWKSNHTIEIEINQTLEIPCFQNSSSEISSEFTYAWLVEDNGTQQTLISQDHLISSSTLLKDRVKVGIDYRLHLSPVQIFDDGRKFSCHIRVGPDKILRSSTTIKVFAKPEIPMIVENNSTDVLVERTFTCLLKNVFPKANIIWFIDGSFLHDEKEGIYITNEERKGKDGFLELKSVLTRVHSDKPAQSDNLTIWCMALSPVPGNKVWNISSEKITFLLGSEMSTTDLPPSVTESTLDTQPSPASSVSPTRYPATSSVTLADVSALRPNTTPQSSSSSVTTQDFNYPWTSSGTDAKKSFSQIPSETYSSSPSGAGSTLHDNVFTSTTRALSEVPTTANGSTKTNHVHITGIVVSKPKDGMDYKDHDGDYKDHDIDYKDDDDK
Description: The cross-reactive binding capacity of the anti-CD96 antibody to monkey CD96 was tested by ELISA to determine the binding of the antibody to cynomolgus CD96 protein. The 3×FLAG-tagged CD96 fusion protein was used to coat the microtiter plate, and the intensity of the signal after adding with the antibody was used for evaluating the binding activity of the antibody and cynomolgus CD96. The specific experimental method is as follows:
cyno-CD96-3×FLAG with the amino acid sequence of SEQ ID NO: 95 prepared in Embodiment 4 was diluted to a concentration of 2 μg/ml with PBS buffer (Shanghai Yuanpei Biotechnology Co., Ltd. Cat No. B320), pH 7.4, added to a 96-well microtiter plate (Corning, Cat No. CLS3590-100EA) at a volume of 50 μl/well, and placed in an incubator at 37° C. for 2 hours. After discarding the liquid, 250 μl/well of 5% skim milk (BD, 232100) blocking solution diluted with PBS was added, and the plate was incubated in an incubator at 37° C. for 2.5 hours or at 4° C. overnight (16-18 hours) for blocking. After blocking, the blocking solution was discarded, and the plate was washed 4 times with PBST buffer (pH 7.4 PBS containing 0.05% tween-20). 50 μl/well of different concentrations of the antibodies to be tested (hybridoma purification antibody or humanized antibody) diluted with sample dilution was added, and the plate was incubated in an incubator at 37° C. for 1 hour. […] After washing the plate 4 times with PBST, 50 μl/well of TMB chromogenic substrate (KPL, Cat No. 52-00-03) was added, and the plate was incubated at room temperature for 5-15 minutes, followed by adding 50 μl/well of 1M H₂SO₄ to stop the reaction. The absorption value was read at 450 nm with a NOVOStar microplate reader, and the EC50 value of the binding of CD96 antibody to monkey CD96 was calculated (see Table 14).

IC50 [1]: 0.046 nM
EC50 [2]: 0.065 nM
B1: h1719-014 (antibody, V domains shown)
VH: EVTLKESGPVLVKPTETLTLTCTVSGFSLSSYGVSWVRQPPGKGLEWLGVIWGDGNTNYHSVLISRLTISKDTSKSQVVLTLTNMDPVDTATYYCAKNYYYGSRYGYPLDYWGQGTTVTVSS
VL: DIQMTQSPSSVSASVGDRVTITCKATQDVGTAVAWYQQKPGKSPKLLIYWASTRHTGVPERFSGSGSGTDFTLTISSLQPEDFATYFCQQYGSSVLTFGGGTKVEIK
notes: Only variable regions are tied to this name; also called M719-014
